In the assay the target is SARS-CoV-2 ORF6 C3 + YP (SARS-CoV-2 | SARS-CoV). The assay can be described thus: ITC. The settings on record: both partners purified.
SARS-CoV-2 ORF6 C3 + YP (SARS-CoV-2 | SARS-CoV), sequence (P52948 157-213): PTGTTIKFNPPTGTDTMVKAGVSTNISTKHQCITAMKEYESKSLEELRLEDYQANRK

B1: Rae1(31-368)-Nup98(157-213) heterodimer (complex)
chain 1: DIEVTSSPDDSIGCLSFSPPTLPGNFLIAGSWANDVRCWEVQDSGQTIPKAQQMHTGPVLDVCWSDDGSKVFTASCDKTAKMWDLSSNQAIQIAQHDAPVKTIHWIKAPNYSCVMTGSWDKTLKFWDTRSSNPMMVLQLPERCYCADVIYPMAVVATAERGLIVYQLENQPSEFRRIESPLKHQHRCVAIFKDKQNKPTGFALGSIEGRVAIHYINPPNPAKDNFTFKCHRSNGTNTSAPQDIYAVNGIAFHPVHGTLATVGSDGRFSFWDKDARTKLKTSEQLDQPISACCFNHNGNIFAYASSYDWSKGHEFYNPQKKNYIFLRNAAEELKPRNKK
chain 2: not shown
notes: also called Rae1-Nup98; Rae1-Nup98 complex
The term Kd denotes the constant that tells how readily two partners part at equilibrium. For the molecule B1, the dissociation constant (Kd) was determined as 200 nM.

The record behind these values is article PMC9376891 (Nature Communications, 2022).
